# Experiments:
# Assay in all cases: UDP-Glo glucosyl transferase assay, purified enzyme
# Assay type in all cases: biochemical, Zea mays
# [1] = test system: CN1CC(O)N(c2cc(C(F)(F)F)c(Cl)cn2)C1=O; settings: other: control = inactive H24A mutant of bx9 (asterisk), pH 7.5
# [2] = test system: CN1CC(O)N(c2cc(C(F)(F)F)ccn2)C1=O; settings: other: DMSO reagent blank as control, pH 7.5
# [3] = test system: CON1C(=O)N(c2cc(C(F)(F)F)c(Cl)cn2)C(O)C1C; settings: other: control = inactive H24A mutant of bx9 (asterisk), pH 7.5
# [4] = test system: CON1C(=O)N(c2cc(C(F)(F)F)ccn2)C(O)[C@@H]1C; settings: other: DMSO reagent blank as control, pH 7.5
# [5] = test system: Cc1cnc(N2C(=O)N(C)CC2O)cc1C(F)(F)F; settings: other: control = inactive H24A mutant of bx9 (asterisk), pH 7.5
# [6] = test system: CON1C(=O)N(c2cc(C(F)(F)F)ccn2)C(O)[C@@H]1C; settings: other: DMSO reagent blank as control, pH 7.5; remark: listed apart in the source
# Procedure: (§1) Glucosyl transferase activity is assayed via measurement of acceptor substrate-dependent production of UDP from ultrapure UDP-glucose using the Promega UDP-Glo™ method and according to the manufacturer's instructions. Assays are run in 96 well microtiter plates.
# (§2) Enzyme, typically at a stock concentration of ˜2 mg/ml is diluted to an appropriate concentration in 50 mM K^+ Hepes buffer at pH7.5 containing 0.5 mg/mL bovine serum albumin (BSA) and 5 ul aliquots of this diluted enzyme added to each well of a Perkin Elmer white ½ area 96 well plate. […] Assays are run for an appropriate time (usually 10 to 60 min) so that the amount of UDP formed lies within the most nearly linear part of the UDP standard curve and are stopped with the addition and mixing of 25 ul UDP-Glo™ detection reagent (prepared as described below). Plates are then incubated at room temperature for 60 minutes and then read in a luminescence plate reader (Perkin Elmer Envision 2130 Multilabel Reader). A UDP standard curve is run alongside each set of assays and reagent blank control assays run with DMSO in place of test herbicide. Typically, 300 pmol of UDP corresponds to a Relative Luminescence Unit (RLU) reading of about 1.5E7 and the response curve between 0 and 600 pmol is fitted to a polynomial function (see for example FIG. 2).
# (§3) The UDP-Glo™ reagents are made up and used according to the manufacturer's instructions. Thus, Nucleotide Detection Buffer and ATP are combined to make nucleotide detection reagent (NDR) dispensed into aliquots and frozen to be freshly thawed before use.
# (§4) Km and kcat values in respect of UDP-glucose are derived by carrying out experiments to measure initial rates over a suitable range of concentrations of UDP glucose out at a fixed near saturating concentration of acceptor substrate. Best fit values of kcat, Km and kcat/Km are obtained by direct fitting of the data to the Michaelis-Menten equation using Graphpad Prism™ software.
# (§5) Variants of C-terminally his tagged SEQ ID No:1 (w/t bx9 from Zea mays), exemplified as SEQ ID 16-30, were cloned, purified and assayed as described in Example 1. FIG. 4 depicts the data from some experiments to determine the kinetic parameters of some of these variants in respect of herbicide VI and table 12 summarizes the estimates of kinetic parameters obtained from further such experiments in respect of a range of herbicides.
# [7] = test system: CN1CC(O)N(c2cc(C(F)(F)F)ccn2)C1=O; settings: other: DMSO reagent blank as control, pH 7.5; remark: listed apart in the source
# Procedure: as §1, §2, §3, §4, §5
Substance,Km [1],kcat [1],kcat/Km [1],Km [2],kcat [2],kcat/Km [2],Km [3],kcat [3],kcat/Km [3],Km [5],kcat [5],kcat/Km [5],Km [6],kcat [6],kcat/Km [6],other results
"SEQ ID NO 17, zmBX9 S117V, M279F, A334K mutant (Zea mays; A334K/M279F/S117V)",10530 µM,2.04 s⁻¹,190 M⁻¹ s⁻¹,109.7 µM,0.852 s⁻¹,7800 M⁻¹ s⁻¹,190 µM,2.08 s⁻¹,11200 M⁻¹ s⁻¹,800 µM,0.38 s⁻¹,480 M⁻¹ s⁻¹,–,–,–,Km [4]: 2.2 µM; kcat [4]: 2.08 s⁻¹; kcat/Km [4]: 938000 M⁻¹ s⁻¹
"SEQ ID NO 16, zmBX9 S117V, M279F, A334R mutant (Zea mays; A334R/M279F/S117V)",–,–,–,–,–,–,–,–,–,–,–,–,2.8 µM,2.45 s⁻¹,880000 M⁻¹ s⁻¹,–
"SEQ ID NO 22, mutant of Zea mays bx9 glucosyl transferase (Zea mays; A334K/F21Y/M279F/S117V/T220P)",320 µM,0.8 s⁻¹,2500 M⁻¹ s⁻¹,14.7 µM,1.32 s⁻¹,89700 M⁻¹ s⁻¹,20 µM,1.68 s⁻¹,68900 M⁻¹ s⁻¹,200 µM,1.16 s⁻¹,5950 M⁻¹ s⁻¹,–,–,–,–
"SEQ ID 24, mutant of Zea mays bx9 glucosyl transferase (Zea mays; A334K/L194C/M279F/S117V)",–,–,–,–,–,–,–,–,–,–,–,–,–,–,–,Km [7]: 45.5 µM; kcat [7]: 2.61 s⁻¹; kcat/Km [7]: 57500 M⁻¹ s⁻¹
"SEQ ID 25, mutant of Zea mays bx9 glucosyl transferase (Zea mays; A334R/M279F/S117C)",–,–,–,–,–,–,–,–,–,–,–,–,8.5 µM,3.24 s⁻¹,380000 M⁻¹ s⁻¹,–
"SEQ ID NO 21, mutant of Zea mays bx9 glucosyl transferase (Zea mays; A334K/F21Y/L194V/M279F/S117V)",–,–,–,57.3 µM,1.86 s⁻¹,32500 M⁻¹ s⁻¹,–,–,–,–,–,–,–,–,–,–

# Source: patent US20200270588A1, “GLUCOSYL TRANSFERASE POLYPEPTIDES AND METHODS OF USE” (Syngenta Participations AG, priority 2017, published 2020)
